The record followed here is the Human Domainome abundance scans (Beltran et al. 2025).

± gives the uncertainty stated by the source.

First the molecules themselves.
B1: Transitional endoplasmic reticulum ATPase, residues 26 to 106; numbered along this chain, P55072 (parent)
chain: LIVDEAINEDNSVVSLSQPKMDELQLFRGDTVLLKGKKRREAVCIVLSDDTCSDEKIRMNRVVRNNLRVRLGDVISIQPCP

The variants in the data set derive from B1. Nature of the data set: abundance fitness (aPCA) (normalised: wild type 0, dead -1); higher = more abundant; growth selection in yeast, the domain comes from the species named. Conditions: Homo sapiens.
As for S17F, the abundance fitness is -0.698 ± 0.18.
Turning to S17M, the abundance fitness is -0.995 ± 0.15.
Regarding S17G, the abundance fitness was -0.153 ± 0.043.
Then S17D, with -1.01 ± 0.34; and N8I, with -0.042 ± 0.14.
The result for N8T reads 0.046 ± 0.067; that for N8R, -0.083 ± 0.036; that for N8C, -0.015 ± 0.058.
Then N8A, with -0.059 ± 0.059.
Turning to N8F, the abundance fitness was -0.083 ± 0.12.
With N8W, the abundance fitness is -0.13 ± 0.055.
The result for R39M reads -0.142 ± 0.12.
The result for R39Y reads -0.136 ± 0.1; that for R39Q, 0.079 ± 0.12; that for R39D, 0.008 ± 0.12.
Then R39E, with 0.056 ± 0.073; and R39G, with 0.008 ± 0.045.
As for R39P, the abundance fitness was -0.079 ± 0.096.
R39F: the abundance fitness is -0.007 ± 0.12.
R39S: the abundance fitness turned out to be 0.016 ± 0.05.
The result for R39T reads 0.013 ± 0.1; that for L47M, 0.082 ± 0.095; that for L47N, 0.028 ± 0.16.
The result for L47A reads 0.082 ± 0.061; that for L47P, -0.756 ± 0.17; that for V46T, -0.147 ± 0.085.
The result for V46K reads -0.528 ± 0.21; that for D10R, -0.158 ± 0.058.
Consider D10P, for which the abundance fitness is -0.02 ± 0.071.
Then D10L, with -0.105 ± 0.042; and D10I, with -0.121 ± 0.044; and D10H, with 0.098 ± 0.13.
With D10W, the abundance fitness is -0.189 ± 0.071.
Regarding C52Q, the abundance fitness is -0.026 ± 0.095.
The result for C52S reads -0.261 ± 0.066.
Then Q25A, with -0.116 ± 0.052.
In the case of Q25C, the abundance fitness was found to be 0.006 ± 0.073.
The result for Q25N reads 0.038 ± 0.098; that for Q25D, 0.048 ± 0.094.
In the case of Q25R, the abundance fitness is -0.081 ± 0.053.
On to Q25F, for which the abundance fitness is -0.129 ± 0.096.
The result for Q25I reads -0.043 ± 0.081; that for G29E, -0.198 ± 0.063; that for G29V, -0.612 ± 0.098.
On to G29D, for which the abundance fitness was -0.172 ± 0.097.
The result for R40N reads -0.075 ± 0.12; that for R40I, -0.046 ± 0.13; that for R40S, -0.061 ± 0.054.
With R40L, the abundance fitness was -0.033 ± 0.056.
On to R40A, for which the abundance fitness is 0.097 ± 0.086.
The result for R40T reads 0.086 ± 0.082; that for M59I, -0.002 ± 0.14; that for M59A, -0.258 ± 0.086.
On to M59T, for which the abundance fitness was -0.275 ± 0.1.
On to M59K, for which the abundance fitness was -1.03 ± 0.21.
D73S: the abundance fitness was -0.012 ± 0.07.
In the case of D73L, the abundance fitness was -0.922 ± 0.13.
As for D73W, the abundance fitness was -0.412 ± 0.13.
Turning to I45D, the abundance fitness is -0.183 ± 0.084.
With F27K, the abundance fitness is -0.023 ± 0.092.
The result for F27A reads 0.042 ± 0.048; that for F27G, 0.016 ± 0.05.
The result for F27W reads -0.101 ± 0.06; that for F27L, 0.026 ± 0.052; that for F27H, 0.028 ± 0.099.
With D22P, the abundance fitness was -0.862 ± 0.18.
Consider D22S, for which the abundance fitness was -0.084 ± 0.05.
Then D22L, with -0.008 ± 0.048.
Consider D22W, for which the abundance fitness is -0.281 ± 0.057.
Then K35W, with -0.154 ± 0.17; and K35N, with 0.032 ± 0.16; and K35P, with -0.869 ± 0.27.
Then K35R, with 0.006 ± 0.081.
The result for A42C reads 0.116 ± 0.15; that for A42V, -0.065 ± 0.057.
In the case of A42G, the abundance fitness is -0.179 ± 0.049.
Then I57C, with -0.492 ± 0.16.
For I57N, the abundance fitness is -0.716 ± 0.3.
For I57G, the abundance fitness was -0.951 ± 0.15.
For I57M, the abundance fitness was -0.198 ± 0.084.
The result for I57A reads -0.356 ± 0.064; that for I57T, -0.622 ± 0.11; that for L33W, -0.155 ± 0.065.
Then L33E, with -0.19 ± 0.081; and L33I, with -0.23 ± 0.14.
Then L33T, with -0.03 ± 0.088.
On to L33S, for which the abundance fitness was -0.122 ± 0.056.
Then L33F, with -0.318 ± 0.17; and V74D, with -0.022 ± 0.091; and V74I, with -0.115 ± 0.091.
In the case of V74A, the abundance fitness was determined as 0.031 ± 0.077.
The result for V74Y reads -0.052 ± 0.11.
Then E41Y, with -0.14 ± 0.15; and E41H, with -0.167 ± 0.14; and V3I, with -0.037 ± 0.13.
As to V3L, the abundance fitness was -0.708 ± 0.12.
Then V3G, with -0.811 ± 0.088; and V3T, with -0.432 ± 0.097.
The result for V3Q reads -0.891 ± 0.17; that for Q18S, -0.052 ± 0.069.
The result for Q18H reads 0.036 ± 0.17; that for Q18M, 0.249 ± 0.13.
As to Q18V, the abundance fitness came to 0.001 ± 0.05.
Turning to Q18F, the abundance fitness is -0.191 ± 0.074.
Then Q18A, with -0.003 ± 0.072; and K56I, with 0.013 ± 0.15.
Then K56C, with 0.027 ± 0.085; and K56Y, with -0.022 ± 0.1.
Take R64W: the abundance fitness is -0.684 ± 0.18.
The result for R64T reads -0.381 ± 0.096.
For R64Q, the abundance fitness is -0.105 ± 0.1.
The result for L24E reads -0.709 ± 0.079; that for L24R, -0.509 ± 0.045; that for L24V, -0.429 ± 0.041.
Take L24G: the abundance fitness was -0.775 ± 0.069.
Consider L24F, for which the abundance fitness was -0.321 ± 0.11.
The result for L24A reads -0.553 ± 0.054; that for L24I, -0.338 ± 0.099.
With L24C, the abundance fitness was -0.574 ± 0.12.
Turning to L24T, the abundance fitness was -0.705 ± 0.088.
Then L24S, with -0.74 ± 0.095; and S12F, with -0.036 ± 0.095.
The result for S12R reads -0.038 ± 0.04; that for S12I, -0.166 ± 0.11; that for S12Y, -0.119 ± 0.099.
The result for R58T reads -0.515 ± 0.13; that for R58W, -0.625 ± 0.15.
Regarding R58I, the abundance fitness is -0.089 ± 0.2.
In the case of R58C, the abundance fitness was -0.255 ± 0.13.
In the case of R58S, the abundance fitness was -0.253 ± 0.062.
The result for R58K reads -0.013 ± 0.12; that for I77W, -0.856 ± 0.27; that for V13L, -0.095 ± 0.047.
Then V32G, with -0.587 ± 0.049; and V32M, with -0.166 ± 0.1.
V32F: the abundance fitness was -0.832 ± 0.28.
T31H: the abundance fitness is -0.048 ± 0.13.
In the case of T31F, the abundance fitness is -0.198 ± 0.09.
Take T31L: the abundance fitness is -0.129 ± 0.061.
On to T31K, for which the abundance fitness was determined as 0.077 ± 0.071.
The result for L67F reads -0.411 ± 0.14.
Then L67E, with -0.853 ± 0.15; and L67G, with -0.896 ± 0.1; and L67D, with -0.823 ± 0.25.
As for L67V, the abundance fitness is -0.35 ± 0.058.
Then L67P, with -0.789 ± 0.14.
On to E55W, for which the abundance fitness was -0.148 ± 0.058.
Take E55F: the abundance fitness is -0.052 ± 0.09.
As for E55P, the abundance fitness was -0.075 ± 0.083.
The result for E55K reads -0.03 ± 0.11; that for E55G, 0.018 ± 0.043.
Consider G72Q, for which the abundance fitness is -0.424 ± 0.13.
Consider G72A, for which the abundance fitness was -0.271 ± 0.061.
Regarding G72P, the abundance fitness was -0.891 ± 0.21.
G72T: the abundance fitness was -0.037 ± 0.1.
Regarding R70L, the abundance fitness was 0.037 ± 0.06.
Regarding R70W, the abundance fitness is -0.127 ± 0.072.
Take R70Q: the abundance fitness was -0.157 ± 0.12.
In the case of E5V, the abundance fitness is -0.068 ± 0.041.
Consider E5H, for which the abundance fitness was -0.224 ± 0.1.
Regarding E5P, the abundance fitness is -0.149 ± 0.051.
Consider E5S, for which the abundance fitness was determined as 0.029 ± 0.052.
The result for E5C reads -0.013 ± 0.054.
Then L16V, with -0.139 ± 0.043; and L16G, with -0.895 ± 0.063; and L16W, with -0.912 ± 0.14.
Then N65P, with -0.926 ± 0.21.
